Where “and” joins values, the source holds several entries; their conditions need not be identical. Identical values can stand only once.
Target: EGFR^K642G-mEGFP (UniProt P00533)
Assay: number and brightness

- apparent brightness BE: 4.11 and 4.73 and 5.53
Substance: EGFR^K642G-mEGFP (from UniProt P00533) (receptor)
